Data on 1 molecule can be found in patent US20240018226A1.

For this experiment, the target named is pHrodo-labeled 4RON human tau P301L soluble oligomer (human), P10636. Description: cell-based or functional assay.
Sequence of pHrodo-labeled 4RON human tau P301L soluble oligomer (human), P10636 (P10636 other isoform, or with tags, fused parts or gaps P301L P301L): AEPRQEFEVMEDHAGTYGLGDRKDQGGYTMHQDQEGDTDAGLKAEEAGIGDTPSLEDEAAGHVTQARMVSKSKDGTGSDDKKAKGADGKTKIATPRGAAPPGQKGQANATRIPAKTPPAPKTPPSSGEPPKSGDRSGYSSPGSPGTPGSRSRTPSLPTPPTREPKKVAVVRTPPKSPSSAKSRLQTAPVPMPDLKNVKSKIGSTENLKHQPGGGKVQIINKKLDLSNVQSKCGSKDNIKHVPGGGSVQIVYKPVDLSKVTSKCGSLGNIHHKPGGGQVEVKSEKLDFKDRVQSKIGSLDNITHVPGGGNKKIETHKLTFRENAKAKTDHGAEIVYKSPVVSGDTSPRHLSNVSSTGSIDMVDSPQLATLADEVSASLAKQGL

B1: mouse 3D6 (antibody, V domains shown)
VH: EVQLQQSGADLVRPGALVKLSCKASGFNIKDYYLHWVRQRPEQGLEWIGWIDPENGDTVYDPKFQGKATITADTSSNTAYLQLGSLTSEDTAVYFCSTLDFWGQGTTLTVSS
VL: not shown
modifications: here or on the partner: labeled with pHrodo Red succinimidyl ester (sites not given)
Turning to B1, the IC50 of inhibition of tau internalization into B103 neuroblastoma cells (pHrodo Texas Red mean fluorescence intensity, FACS) came out at 9 nM.
